Source: the supplement of paper PMC10567573

B1: SLC35F2 (parent)
chain: SFMPLVIKVTSATSVNLGILTADL

Variants of: B1
Test: protein stability index of a GFP-peptide fusion (GPS, HEK-293T) (PSI 1-6); higher = more stable
Conditions: c terminus: a fixed tail appended
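Further: lentivirally expressed fusions sorted by FACS into six bins by GFP to DsRed ratio, PSI derived from sequencing read proportions per bin multiplied by bin number.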

Variant | protein stability index
SQMPLVIKVTSATSVNLGILTADL [F2Q] | 3.56
SGMPLVIKVTSATSVNLGILTADL [F2G] | 3.11
STMPLVIKVTSATSVNLGILTADL [F2T] | 2.87
SMMPLVIKVTSATSVNLGILTADL [F2M] | 2.47
SIMPLVIKVTSATSVNLGILTADL [F2I] | 3.41
SEMPLVIKVTSATSVNLGILTADL [F2E] | 2.65
SKMPLVIKVTSATSVNLGILTADL [F2K] | 3
SHMPLVIKVTSATSVNLGILTADL [F2H] | 1.71
SRMPLVIKVTSATSVNLGILTADL [F2R] | 2.01
CFMPLVIKVTSATSVNLGILTADL [S1C] | 3.77
HFMPLVIKVTSATSVNLGILTADL [S1H] | 2.96
NFMPLVIKVTSATSVNLGILTADL [S1N] | 3.55
GFMPLVIKVTSATSVNLGILTADL [S1G] | 2.77
TFMPLVIKVTSATSVNLGILTADL [S1T] | 3.15
SFMCLVIKVTSATSVNLGILTADL [P4C] | 3.66
SFMALVIKVTSATSVNLGILTADL [P4A] | 2.68
SFMDLVIKVTSATSVNLGILTADL [P4D] | 1.64
SFMGLVIKVTSATSVNLGILTADL [P4G] | 2.32
SFMQLVIKVTSATSVNLGILTADL [P4Q] | 4.03
SFMPLVIKVTSATSVNLGILTAKL [D23K] | 1.8
SFMPLVIKVTSATSVNLGILTAWL [D23W] | 2.49
SFMPLVIKVTSATSVNLGILTALL [D23L] | 3.79
SFMPLVIKVTSATSVNLGILTAQL [D23Q] | 3.39
SFMPLVIKVTSATSVNLGILTACL [D23C] | 2.29

Variant | protein stability index
SFMPLVIKVQSATSVNLGILTADL [T10Q] | 3.38
SFMPLVIKVMSATSVNLGILTADL [T10M] | 2.46
SFMPLVIKVFSATSVNLGILTADL [T10F] | 3.67
SFMPLVIKVVSATSVNLGILTADL [T10V] | 3.4
SFMPLVIKVWSATSVNLGILTADL [T10W] | 3.57
SFMPLVIKVDSATSVNLGILTADL [T10D] | 3.46
SFMPLVIKVGSATSVNLGILTADL [T10G] | 3.08
SFMPLVIKVTSATSVNLGILTADT [L24T] | 2.24
SFMPLVIKVTSATSVNLGILTADP [L24P] | 3.07
SFMPLVIKVTSATSVNLGILTADG [L24G] | 3.04
SFMPLVIKVTSATSVNLGILTADY [L24Y] | 4.32
SFMPLVIKVTSATSVNLGILTADD [L24D] | 1.55
SFMPLVIKVTSATSVHLGILTADL [N16H] | 2.74
SFMPLVIKVTSATSVQLGILTADL [N16Q] | 3.34
SFMPLVIKVTSATSVALGILTADL [N16A] | 2.18
SFMPLVIKVTSATSVDLGILTADL [N16D] | 2.94
SFMPLVIKVTSATSVCLGILTADL [N16C] | 3.4
SFMPLVQKVTSATSVNLGILTADL [I7Q] | 2.26
SFMPLVCKVTSATSVNLGILTADL [I7C] | 2.11
SFMPLVGKVTSATSVNLGILTADL [I7G] | 2.17
SFMPLVNKVTSATSVNLGILTADL [I7N] | 2.21
SFKPLVIKVTSATSVNLGILTADL [M3K] | 2.4
SFIPLVIKVTSATSVNLGILTADL [M3I] | 2.15
SFLPLVIKVTSATSVNLGILTADL [M3L] | 2.73

Variant | protein stability index
SFRPLVIKVTSATSVNLGILTADL [M3R] | 1.58
SFVPLVIKVTSATSVNLGILTADL [M3V] | 2.06
SFCPLVIKVTSATSVNLGILTADL [M3C] | 1.59
SFWPLVIKVTSATSVNLGILTADL [M3W] | 4.7
SFMPLVIKVTSGTSVNLGILTADL [A12G] | 3.33
SFMPLVIKVTSWTSVNLGILTADL [A12W] | 1.91
SFMPLVIKVTSDTSVNLGILTADL [A12D] | 2.82
SFMPLVIKVTSRTSVNLGILTADL [A12R] | 2.75
SFMPLVIKVTSYTSVNLGILTADL [A12Y] | 1.73
SFMPLVIKVTSATSVNLGILTSDL [A22S] | 2.88
SFMPLVIKVTSATSVNLGILTWDL [A22W] | 3.55
SFMPLVIKVTSATSVNLGILTEDL [A22E] | 2.99
SFMPLVIKVTSATSVNLGILTPDL [A22P] | 3.07
SFMPLVIKVTSATSVNLGILTVDL [A22V] | 3.18
SFMPLVIKVTSATSVNLGILTQDL [A22Q] | 2.86
SFMPPVIKVTSATSVNLGILTADL [L5P] | 2.55
SFMPNVIKVTSATSVNLGILTADL [L5N] | 2.24
SFMPVVIKVTSATSVNLGILTADL [L5V] | 2.41
SFMPGVIKVTSATSVNLGILTADL [L5G] | 1.68
SFMPLVIKVTSATSVNLGRLTADL [I19R] | 2.08
SFMPLVIKVTSATSVNLGMLTADL [I19M] | 3.44
SFMPLVIKVTSATSVNLGTLTADL [I19T] | 2
SFMPLVIKVTSATSVNLGLLTADL [I19L] | 2.54
SFMPLVIKVTSATSVNLGPLTADL [I19P] | 2.37

Variant | protein stability index
SFMPLGIKVTSATSVNLGILTADL [V6G] | 3.03
SFMPLKIKVTSATSVNLGILTADL [V6K] | 2.88
SFMPLQIKVTSATSVNLGILTADL [V6Q] | 1.86
SFMPLWIKVTSATSVNLGILTADL [V6W] | 4.41
SFMPLAIKVTSATSVNLGILTADL [V6A] | 2.02
SFMPLTIKVTSATSVNLGILTADL [V6T] | 2.76
SFMPLVIKVTSATSVNAGILTADL [L17A] | 2.48
SFMPLVIKVTSATSVNIGILTADL [L17I] | 2.77
SFMPLVIKVTSATSVNMGILTADL [L17M] | 3.87
SFMPLVIKVTSATSVNRGILTADL [L17R] | 2.5
SFMPLVIKNTSATSVNLGILTADL [V9N] | 2.39
SFMPLVIKPTSATSVNLGILTADL [V9P] | 1.7
SFMPLVIKETSATSVNLGILTADL [V9E] | 1.58
SFMPLVIKYTSATSVNLGILTADL [V9Y] | 3.58
SFMPLVIKRTSATSVNLGILTADL [V9R] | 1.81
SFMPLVIKGTSATSVNLGILTADL [V9G] | 2.17
SFMPLVIKVTVATSVNLGILTADL [S11V] | 2.64
SFMPLVIKVTDATSVNLGILTADL [S11D] | 2.91
SFMPLVIKVTSATSGNLGILTADL [V15G] | 2.91
SFMPLVIKVTSATSMNLGILTADL [V15M] | 3.77
SFMPLVIKVTSATSANLGILTADL [V15A] | 3.38
SFMPLVIKVTSATSVNLGILIADL [T21I] | 3.26
SFMPLVIKVTSATSVNLGILAADL [T21A] | 2.49
